± gives the uncertainty stated by the source.
Test: amyloid nucleation score (Sup35N fusion, yeast selection) (log enrichment); library NNK3; higher = more nucleation; inactive = no reads after selection
Summary of the method: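 Output and input plasmid inserts were sequenced by Illumina after psi-negative yeast carrying Sup35N fused to peptides of 20 random codons had been induced 24 hours with 100 μM copper sulfate and grown 7 days at 30°C on medium lacking adenine and uracil. The nucleation score is the DiMSum log enrichment of output over input reads, centred on the mode score of non-aggregating sequences. Sequences with under 100 input reads were excluded.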

| Substance | amyloid nucleation score |
| --- | --- |
| RFDESTRVCV | inactive |
| RFDIK | inactive |
| RFDWRLSCTGRNMVASLLFV | inactive |
| RFEFMGFSYPCHLTWLLVGY | inactive |
| RFEYMGNVMES | inactive |
| RFIGGTYH | inactive |
| RFIVCCKTGCVY | inactive |
| RFNSWRSCIWLM | inactive |
| RFQCWVWSQ | inactive |
| RFSWNENVGVDGQHLPEVER | inactive |
| RFSYSDTI | inactive |
| RFTDRCTLHFQMFVVLRAVI | inactive |
| RFVYRVNNRSKVLSEARMCI | inactive |
| RFWFWQPVVYIIRWIRVPLA | inactive |
| RFWMRKY | inactive |
| RFYGDM | inactive |
| RFYRCNYYRM | 2.17 ± 0.084 |
| RFYVYIINHHAPVYWVSRYS | 2.59 ± 0.065 |
| RGAIIFGKTMIYDSC | inactive |
| RGAVLLKNWL | inactive |
| RGCGVQMS | 0.882 ± 0.24 |
| RGHNRRMYTWRVCRPSHHCK | inactive |
| RGIHEIGVMLKSVSQLE | inactive |

| Substance | amyloid nucleation score |
| --- | --- |
| RGKLFLSLLIVYFTLFLSVM | inactive |
| RGMWSFHGYWRTGKYMATGG | inactive |
| RGNIWIHKK | 0.404 ± 0.15 |
| RGPVNCYYRISPRRPRHVSE | inactive |
| RGSMRPPSVSQMQCRYKDRF | -0.663 ± 1.1 |
| RGVAVR | 1.89 ± 0.077 |
| RHCGRALCDWLVIRWGSGYT | inactive |
| RHGFWSVSFVSRQFSNILSC | inactive |
| RHLLTISKPEMMCGDADEYR | inactive |
| RHQDYLHADGLNMAISITRI | inactive |
| RHRQSPYIINSVVIFGNQGT | 2.5 ± 0.067 |
| RHSLMRDYYNFLMLDCTE | inactive |
| RHSNDCMNFEVIILIDSCLE | inactive |
| RHSNMSRIPMVLNKEKPGTR | inactive |
| RHTPDSLQYFLVFKVSYGFL | inactive |
| RHVFFLC | inactive |
| RIDTRNDRSNYR | inactive |
| RIHVSKLLTWTGSSLVVWSA | inactive |
| RIINCDKLSQTTALYIKTFM | inactive |
| RIQCLCVDVLSVMLSVHA | 1.48 ± 0.11 |
| RISVAGLCASEAVAKCLRRG | inactive |
| RIVDGFLTW | inactive |
| RIVFSKVMLVEIRTSLWFCT | inactive |

| Substance | amyloid nucleation score |
| --- | --- |
| RIVIPMVWEYIFSDFVFG | 1.72 ± 0.088 |
| RIVSRWCDNLNHTDCECCVC | inactive |
| RKCLMMCDYCITLNM | 2.29 ± 0.06 |
| RKEVLYSYRNHLK | inactive |
| RKFDPSISGSCWNVGISCVV | inactive |
| RKGFKAIGY | inactive |
| RKKLEGVFVRLFQFANPIVG | inactive |
| RKLSAHLQEGD | inactive |
| RKPHMTL | inactive |
| RKSGYFP | inactive |
| RKSGYYLIVMRALNREPTPV | -0.363 ± 1.4 |
| RKTSSY | -0.725 ± 0.84 |
| RKVGRLIPFHFCSN | inactive |
| RKVKILWNDTLTFRT | inactive |
| RLARADNILLGRNSVSSSVK | inactive |
| RLFLGVGCMS | inactive |
| RLFLINSGASDPNSQMSNLR | inactive |
| RLGCCGVSSEWVCRKYLLRG | inactive |
| RLGWFYRNIYLLTVEVGRGR | inactive |
| RLICLMGSLW | 1.34 ± 0.081 |
| RLIIYSFARSQL | inactive |
| RLIWFE | inactive |
| RLKLMRP | inactive |

| Substance | amyloid nucleation score |
| --- | --- |
| RLKMGLSN | -0.846 ± 0.8 |
| RLLKFASYFVKDSRYNPDCF | inactive |
| RLMLLVTPAISFMSF | inactive |
| RLPLLTTKSGMSDTYSAP | inactive |
| RLRLGAAGRQGSEVVYNWSM | 1.23 ± 0.12 |
| RLSIAASFLSLFRYVDFNSL | inactive |
| RLSMNLNTVHVKHKECVPYR | inactive |
| RLTGEMRRCVVHGKRSHRVF | inactive |
| RLYLVGYRLIRCRFGILGAC | inactive |
| RLYQFCFDENSIQLFIYP | 2.35 ± 0.069 |
| RLYVPLLVDVLWEKCKHSNV | inactive |
| RMAEVFLLIDCNFFYFDRYM | 2.02 ± 0.092 |
| RMDETWNITRKNWQDSY | inactive |
| RMDNCSGDI | inactive |
| RMESTYGYVLDVSIEVLWGI | inactive |
| RMFMWENEMDLSTSRVKGYG | inactive |
| RMFVI | inactive |
| RMHGETARWLGAQIWSDRSC | inactive |
| RMILTSQLLQKENGLSVTIN | 0.853 ± 0.2 |
| RMIRNIFGSHAVLCFGCKC | 2.9 ± 0.068 |
| RMLGLNQYCSMLICTIVNFS | 1.19 ± 0.11 |
| RMNYNAYRIFLTPISDWCNL | inactive |
| RMVRRDRNKYSILLGLVMSN | inactive |

| Substance | amyloid nucleation score |
| --- | --- |
| RNATIALCAGWVIYDSVFKG | 2.27 ± 0.073 |
| RNGDCLWIFR | 0.732 ± 0.28 |
| RNHGGNDSDILRRSESMSDR | inactive |
| RNKSSNFREHPVTSRITCRS | inactive |
| RNLKN | inactive |
| RNLRYICRFALGGVARLWCG | 0.197 ± 0.55 |
| RNLVWA | inactive |
| RNTDLL | inactive |
| RNVGKGNAVQSGPAWIERS | inactive |
| RPEAAYSVKYLVLV | inactive |
| RPFYLWNLNIICCPFIQTVK | 2.39 ± 0.072 |
| RPTTIGINNDW | inactive |
| RPYHSEKYDKFVDAMSFWCW | inactive |
| RQCCCSLKHIVWQPLGLCRK | inactive |
| RQGCKVCRWLRSKSLLLRRM | inactive |
| RQGPIYPWVLC | inactive |
| RQGRYEHQRGPFSLVSQVG | -0.083 ± 1.1 |
| RQIMGQKRKNRQESFGFVGC | inactive |
| RQSCGFILQWDKLCFSRDRT | 0.879 ± 0.25 |
| RQVFNAIAFFVLHR | -0.299 ± 0.69 |
| RRARFFVHAQVRWVCFWAMK | inactive |
| RRAYVKQGVEFRIWNCYYWL | 0.667 ± 0.16 |
| RRCNVMLKNDLNCLPSSLFI | 0.322 ± 0.62 |

| Substance | amyloid nucleation score |
| --- | --- |
| RRCPYIRESIYKFSLAKCSF | 0.014 ± 0.31 |
| RREGGTPIAHPLLGPGP | -0.076 ± 0.73 |
| RRFCRYVYEMG | inactive |
| RRHKLW | inactive |
| RRHLITSVHQTLIVVGFDPR | inactive |
| RRIFCLLVANDRLSMRVKCP | inactive |
| RRIPITFIACNCTRTCWQMI | 0.394 ± 0.23 |
| RRKRSQSE | inactive |
| RRLCRYCDVILRNFMHKIQW | inactive |
| RRLPPIRCSHNLNSVPQD | inactive |
| RRLPSELYMSYHYHFFFKSG | inactive |
| RRLSM | inactive |
| RRMTSYFL | inactive |
| RRPLVWKFFQNLGTMN | inactive |
| RRPVRSSNGALTLICRDREF | inactive |
| RRSLHCIDCSRFPLIFHCTV | inactive |
| RRSSRSRRHAKRRRAIVRCG | inactive |
| RRSTQLKRQYKSL | inactive |
| RRTDGATEACISTSGPEYIV | inactive |
| RRVNFVNYSLWV | 1.6 ± 0.1 |
| RRWCLVAIIPIELNAGTEQH | inactive |
| RRYSRIRYRRKLVNWLFYIM | inactive |
| RSCGVFHQRARVHCCIKSLP | inactive |

| Substance | amyloid nucleation score |
| --- | --- |
| RSCSLWVY | inactive |
| RSCYEVLRHGREL | inactive |
| RSDENWRMTYWRAGCRVLDV | inactive |
| RSDVYCWDNYRLEGSGQSSL | inactive |
| RSFHNHHWTVNY | 1.46 ± 0.11 |
| RSFSNSDRMVSNLQFCYYFG | 2.77 ± 0.053 |
| RSGFRLLIWYRKQMICLCNL | inactive |
| RSGKVSFFIGYNVVGLMRFR | inactive |
| RSIVNSRALGLAADRRLEFS | inactive |
| RSIYCLRVNTGYMNKFVVLR | inactive |
| RSLHWNLGLCIWYNEFRDLM | 1.8 ± 0.074 |
| RSLSRNFSLCMGGSDRSGGL | inactive |
| RSMTWFSQDYVSVHRVL | inactive |
| RSPTVL | inactive |
| RSQEVKTVGSLWQFFVSVLG | inactive |
| RSRGWDWFEVSIIVRCSMWD | inactive |
| RSSDSDMSLECKAVE | inactive |
| RSSLLSRVLSEITHSWQLCA | inactive |
| RSSSIYYICFQTFTRCNYPV | inactive |
| RSTVHRYSCDNCVEVIISKQ | 1.18 ± 0.12 |
| RSVTNGQSCLRTVGILSFLA | inactive |
| RSWQEMFCEWSSALDWDWSV | inactive |
| RSYLSEHSNYGAKSSYYGIF | inactive |
